Two molecules from patent US20260139263A1 (IOWA STATE UNIVERSITY RESEARCH FOUNDATION, published 2026) can be followed below.

No end group written: not given here. nYFP = N-terminal end of yellow fluorescent protein

The target of one assay is T1, AtNF-YC4-cYFP (Arabidopsis thaliana, UniProt Q9FMV5 1-250).
T1 construct: BiFC construct expressed in tobacco leaves; AtNF-YC4 is fused in-frame to the N-terminus of cYFP; not shown: cYFP (C-terminal end of yellow fluorescent protein)
T1 sequence (looked up): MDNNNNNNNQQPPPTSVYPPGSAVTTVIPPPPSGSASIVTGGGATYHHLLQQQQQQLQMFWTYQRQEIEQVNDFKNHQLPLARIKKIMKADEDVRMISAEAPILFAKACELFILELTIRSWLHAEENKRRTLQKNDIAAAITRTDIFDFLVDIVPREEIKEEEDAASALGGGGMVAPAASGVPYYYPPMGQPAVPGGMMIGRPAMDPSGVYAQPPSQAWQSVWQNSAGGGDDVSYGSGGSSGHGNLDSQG
The assay is described as follows: in vivo co-expression in tobacco leaf. The method, then:
QQS and AtNF-YC4 were fused in-frame to the N-terminus of nYFP (N-terminal end of yellow fluorescent protein (YFP)) and cYFP (C-terminal end of YFP), respectively. Agrobacterium strain GV3101 transformed with QQS-nYFP and AtNF-YC4-cYFP constructs were co-infiltrated into Nicotiana tabacum. The reconstituted YFP signal was observed 48 h after infiltration under a Zeiss Axioplan II fluorescence microscope.

Assay [1] deals with T2, Arabidopsis Nuclear Factor YB7 (AtNF-YB7), recombinant, tagged, for pull-down (Arabidopsis, UniProt Q9SIT9 1-215).
T2 construct: Contains a histone-fold-like domain; also called AtNF-YB7-GST fusion protein
T2 sequence (looked up): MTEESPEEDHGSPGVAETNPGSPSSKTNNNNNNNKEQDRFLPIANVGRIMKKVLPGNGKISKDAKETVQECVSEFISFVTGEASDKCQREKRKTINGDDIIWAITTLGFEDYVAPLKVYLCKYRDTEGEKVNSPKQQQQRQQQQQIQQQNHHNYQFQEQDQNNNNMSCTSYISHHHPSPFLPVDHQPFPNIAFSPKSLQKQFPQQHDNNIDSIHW
The assay is described as follows: GST pull-down.

B1: QQS-nYFP (other)
chain: MKTNREQEIYVERSFKPNNSTIQNLMDIERFILPHTSTSGVARLKMRVISWVGLQFYNY-nYFP
modifications: also: nYFP limits and sequence not given here
notes: BiFC construct expressed in tobacco leaves; QQS is fused in-frame to the N-terminus of nYFP; not shown: nYFP (N-terminal end of yellow fluorescent protein)
For B1, the binding result with AtNF-YC4-cYFP is “binds”.

B2: GST-QQS fusion protein (other)
chain: MKTNREQEIYVERSFKPNNSTIQNLMDIERFILPHTSTSGVARLKMRVISWVGLQFYNY
modifications: also: fused to GST tag, position and linker not given here
notes: also called GST-tagged QQS; not shown: glutathione-S-transferase (GST) tag
For B2, the binding result in assay [1] is “no binding”.
